Results: patent US20230174635A1 (UCB, published 2023)
Substitutions are numbered along the chain they refer to. One block for each binder: values may come before it.

Key:
Experiment in all cases: cell-based or functional assay
mouse Gremlin = target: T1, mouse Gremlin (mouse, UniProt O70326 25-184)
T1 sequence (looked up): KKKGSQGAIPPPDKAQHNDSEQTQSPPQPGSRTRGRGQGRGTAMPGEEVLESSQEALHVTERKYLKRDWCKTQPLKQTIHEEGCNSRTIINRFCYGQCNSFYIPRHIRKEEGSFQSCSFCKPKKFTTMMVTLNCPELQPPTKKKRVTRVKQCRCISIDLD

[1] = target: T2, recombinant human Gremlin-1 (human, UniProt O60565 25-184)
T2 sequence: T1 sequence (looked up) with P27Q, T33N

BMP4/7 heterodimer = target: T3, BMP4/7 heterodimer (human, UniProt P12644 293-408; P18075 293-431)
T3 sequence (looked up) 1: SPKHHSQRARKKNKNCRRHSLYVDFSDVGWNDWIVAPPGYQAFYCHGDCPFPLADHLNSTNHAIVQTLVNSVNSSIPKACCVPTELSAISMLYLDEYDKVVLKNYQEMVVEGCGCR
T3 sequence (looked up) 2: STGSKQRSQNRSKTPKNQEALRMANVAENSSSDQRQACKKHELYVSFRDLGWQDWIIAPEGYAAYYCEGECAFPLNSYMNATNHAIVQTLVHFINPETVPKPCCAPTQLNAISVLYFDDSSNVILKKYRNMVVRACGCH

- IC50, restoration of BMP signalling blocked by mouse Gremlin, HEK-ID1 reporter gene assay (mouse Gremlin): 0.2 nM
- IC50, restoration of BMP signalling blocked by human Gremlin, HEK-ID1 reporter gene assay [1]: 1.3 nM
B1: Ab7326 (antibody, V domains shown)
VH: QVQLVESGAEVKKPGATVKISCKVSGYTFTDYYMHWVQQAPGKGLEWMGLVDPEDGETIYAEKFQGRVTITADTSTDTAYMELSSLRSEDTAVYYCATDARGSGSYYPNHFDYWGQGTLVTVSS
VL: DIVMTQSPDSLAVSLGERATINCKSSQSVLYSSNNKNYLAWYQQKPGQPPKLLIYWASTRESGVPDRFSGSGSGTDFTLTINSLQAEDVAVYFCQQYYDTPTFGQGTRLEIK

- IC50 (geometric mean, N=2), inhibition of BMP4/7 signalling, Hek-Id1 reporter gene assay (BMP4/7 heterodimer): 1.7 nM
B2: truncated human Gremlin-1 with N-terminal 6His-TEV tag (ligand)
chain: MGSSHHHHHHSSGENLYFQGSAMPGEEVLESSQEALHVTERKYLKRDWCKTQPLKQTIHEEGCNSRTIINRFCYGQCNSFYIPRHIRKEEGSFQSCSFCKPKKFTTMMVTLNCPELQPPTKKKRVTRVKQCRCISIDLD
